{
  "source": "the supplement of paper PMC9112550",
  "about": "“Optimization of the antimicrobial peptide Bac7 by deep mutational scanning” (BMC Biology, 2022);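 note: peptides expressed intracellularly from a pBAD plasmid library in pooled LB shake-flask culture, induced with 0.3% L-arabinose, DNA abundance read by NGS, three biological replicates, DESeq2 with apeglm shrinkage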",
  "data": [
    {"tested_on": "Escherichia coli TOP10", "experiment": "shrunken log2 fold change of peptide-encoding DNA abundance (4.5 h post-induction vs induction); higher = less antimicrobial activity (less host growth inhibition)", "conditions": "time post-induction: 4.5 h; library: site-saturation at positions 5, 18, 19, 20", "values": [
      {"sequence": "RRIRDRPPRLPRPRPRPGVDPRP", "shrunken log2 fold change": 1.36},
      {"sequence": "RRIRARPPRLPRPRPRPVYGPRP", "shrunken log2 fold change": -0.235},
      {"sequence": "RRIRYRPPRLPRPRPRPCETPRP", "shrunken log2 fold change": 0.00591},
      {"sequence": "RRIRCRPPRLPRPRPRPPSTPRP", "shrunken log2 fold change": -0.0239},
      {"sequence": "RRIRARPPRLPRPRPRPDSGPRP", "shrunken log2 fold change": 0.18},
      {"sequence": "RRIRDRPPRLPRPRPRPIGWPRP", "shrunken log2 fold change": -0.0185},
      {"sequence": "RRIRGRPPRLPRPRPRPPRGPRP", "shrunken log2 fold change": 0.938},
      {"sequence": "RRIRTRPPRLPRPRPRPESWPRP", "shrunken log2 fold change": 0.809},
      {"sequence": "RRIRRRPPRLPRPRPRPASMPRP", "shrunken log2 fold change": 0.0911},
      {"sequence": "RRIRFRPPRLPRPRPRPGSVPRP", "shrunken log2 fold change": -0.147},
      {"sequence": "RRIRVRPPRLPRPRPRPQPIPRP", "shrunken log2 fold change": -0.375},
      {"sequence": "RRIRMRPPRLPRPRPRPQCGPRP", "shrunken log2 fold change": 0.096},
      {"sequence": "RRIRCRPPRLPRPRPRPWKNPRP", "shrunken log2 fold change": 0.0137},
      {"sequence": "RRIRERPPRLPRPRPRPKQVPRP", "shrunken log2 fold change": -0.131},
      {"sequence": "RRIRWRPPRLPRPRPRPPDDPRP", "shrunken log2 fold change": 0.847},
      {"sequence": "RRIRERPPRLPRPRPRPRHKPRP", "shrunken log2 fold change": -0.0631},
      {"sequence": "RRIRQRPPRLPRPRPRPWIFPRP", "shrunken log2 fold change": -0.0561},
      {"sequence": "RRIRPRPPRLPRPRPRPSCFPRP", "shrunken log2 fold change": -0.193},
      {"sequence": "RRIRQRPPRLPRPRPRPLRMPRP", "shrunken log2 fold change": 0.483},
      {"sequence": "RRIRERPPRLPRPRPRPESEPRP", "shrunken log2 fold change": 0.0931},
      {"sequence": "RRIRKRPPRLPRPRPRPQFNPRP", "shrunken log2 fold change": -0.281},
      {"sequence": "RRIRYRPPRLPRPRPRPAAQPRP", "shrunken log2 fold change": 0.466},
      {"sequence": "RRIRVRPPRLPRPRPRPYTEPRP", "shrunken log2 fold change": -0.42},
      {"sequence": "RRIRQRPPRLPRPRPRPNVPPRP", "shrunken log2 fold change": -0.0402},
      {"sequence": "RRIRERPPRLPRPRPRPIIKPRP", "shrunken log2 fold change": -0.703},
      {"sequence": "RRIRSRPPRLPRPRPRPNGWPRP", "shrunken log2 fold change": 0.623},
      {"sequence": "RRIRDRPPRLPRPRPRPPRPPRP", "shrunken log2 fold change": 0.616},
      {"sequence": "RRIRSRPPRLPRPRPRPDMLPRP", "shrunken log2 fold change": 0.304},
      {"sequence": "RRIRVRPPRLPRPRPRPRKRPRP", "shrunken log2 fold change": 0.572},
      {"sequence": "RRIRIRPPRLPRPRPRPCRLPRP", "shrunken log2 fold change": -0.468},
      {"sequence": "RRIRYRPPRLPRPRPRPQIGPRP", "shrunken log2 fold change": 0.00262},
      {"sequence": "RRIRQRPPRLPRPRPRPPGTPRP", "shrunken log2 fold change": 0.617},
      {"sequence": "RRIRTRPPRLPRPRPRPQQYPRP", "shrunken log2 fold change": -0.0717},
      {"sequence": "RRIRWRPPRLPRPRPRPTEHPRP", "shrunken log2 fold change": -0.093},
      {"sequence": "RRIRIRPPRLPRPRPRPVSRPRP", "shrunken log2 fold change": 0.0446},
      {"sequence": "RRIRMRPPRLPRPRPRPIDQPRP", "shrunken log2 fold change": 0.0164},
      {"sequence": "RRIRMRPPRLPRPRPRPMPIPRP", "shrunken log2 fold change": 0.0625},
      {"sequence": "RRIRGRPPRLPRPRPRPNRWPRP", "shrunken log2 fold change": 0.617},
      {"sequence": "RRIRHRPPRLPRPRPRPCRDPRP", "shrunken log2 fold change": 0.0154},
      {"sequence": "RRIRQRPPRLPRPRPRPPDTPRP", "shrunken log2 fold change": 0.103},
      {"sequence": "RRIRARPPRLPRPRPRPCYNPRP", "shrunken log2 fold change": -0.456},
      {"sequence": "RRIRWRPPRLPRPRPRPQEFPRP", "shrunken log2 fold change": 0.00161},
      {"sequence": "RRIRIRPPRLPRPRPRPYIDPRP", "shrunken log2 fold change": -0.484},
      {"sequence": "RRIRVRPPRLPRPRPRPCIIPRP", "shrunken log2 fold change": -0.0793},
      {"sequence": "RRIRQRPPRLPRPRPRPKNGPRP", "shrunken log2 fold change": -0.159},
      {"sequence": "RRIRNRPPRLPRPRPRPPSPPRP", "shrunken log2 fold change": 0.538},
      {"sequence": "RRIRLRPPRLPRPRPRPVWMPRP", "shrunken log2 fold change": 0.372},
      {"sequence": "RRIRCRPPRLPRPRPRPMQVPRP", "shrunken log2 fold change": -0.0376},
      {"sequence": "RRIRDRPPRLPRPRPRPYVRPRP", "shrunken log2 fold change": -0.402},
      {"sequence": "RRIRDRPPRLPRPRPRPHRTPRP", "shrunken log2 fold change": -0.0884},
      {"sequence": "RRIRSRPPRLPRPRPRPKPLPRP", "shrunken log2 fold change": -0.107},
      {"sequence": "RRIRSRPPRLPRPRPRPIRHPRP", "shrunken log2 fold change": -0.0283},
      {"sequence": "RRIRRRPPRLPRPRPRPNQQPRP", "shrunken log2 fold change": -0.0676},
      {"sequence": "RRIRRRPPRLPRPRPRPHYCPRP", "shrunken log2 fold change": -0.356},
      {"sequence": "RRIRIRPPRLPRPRPRPIGLPRP", "shrunken log2 fold change": -0.242},
      {"sequence": "RRIRYRPPRLPRPRPRPSSHPRP", "shrunken log2 fold change": -2.24},
      {"sequence": "RRIRQRPPRLPRPRPRPMPWPRP", "shrunken log2 fold change": 0.117},
      {"sequence": "RRIRTRPPRLPRPRPRPAWYPRP", "shrunken log2 fold change": -0.172},
      {"sequence": "RRIRIRPPRLPRPRPRPWISPRP", "shrunken log2 fold change": -0.0286},
      {"sequence": "RRIRDRPPRLPRPRPRPQEIPRP", "shrunken log2 fold change": -0.00905},
      {"sequence": "RRIRWRPPRLPRPRPRPFFHPRP", "shrunken log2 fold change": -0.194},
      {"sequence": "RRIRYRPPRLPRPRPRPQDQPRP", "shrunken log2 fold change": -0.21},
      {"sequence": "RRIRNRPPRLPRPRPRPFPWPRP", "shrunken log2 fold change": -0.084},
      {"sequence": "RRIRHRPPRLPRPRPRPQACPRP", "shrunken log2 fold change": -0.208},
      {"sequence": "RRIRGRPPRLPRPRPRPESYPRP", "shrunken log2 fold change": 0.0402},
      {"sequence": "RRIRHRPPRLPRPRPRPCLLPRP", "shrunken log2 fold change": -0.342},
      {"sequence": "RRIRQRPPRLPRPRPRPSSHPRP", "shrunken log2 fold change": 0.0105},
      {"sequence": "RRIRERPPRLPRPRPRPGMVPRP", "shrunken log2 fold change": 0.217},
      {"sequence": "RRIRARPPRLPRPRPRPKGIPRP", "shrunken log2 fold change": -0.0515},
      {"sequence": "RRIRYRPPRLPRPRPRPKFGPRP", "shrunken log2 fold change": -0.000463},
      {"sequence": "RRIRIRPPRLPRPRPRPFTIPRP", "shrunken log2 fold change": -0.246},
      {"sequence": "RRIRKRPPRLPRPRPRPDLTPRP", "shrunken log2 fold change": -0.000918},
      {"sequence": "RRIRTRPPRLPRPRPRPDPMPRP", "shrunken log2 fold change": -0.0555},
      {"sequence": "RRIRHRPPRLPRPRPRPMLNPRP", "shrunken log2 fold change": -0.114},
      {"sequence": "RRIRPRPPRLPRPRPRPPQYPRP", "shrunken log2 fold change": 0.189}
    ]}
  ]
}
